Source: PMC3197488

Assays:
[1] = target: P. aeruginosa single-stranded DNA-binding protein (P. aeruginosa) (UniProt P40947); experiment: AUC; sedimentation velocity; χψ titrated to 6 μM SSB in high salt buffer, 50000 rpm, 20°C, 280 nm; free χψ from c(s); model of n independent χψ per SSB tetramer
[2] = target: P. aeruginosa single-stranded DNA-binding protein (P. aeruginosa) (UniProt P40947); experiment: AUC; sedimentation velocity; χψ titrated to 0.35 μM cognate SSB saturated with 12.3 μM poly(dT), low salt buffer, 22000 rpm, 20°C, 230 nm; model of n χψ per SSB tetramer
[3] = target: EcoSSB;Eco chi-psi complex (Escherichia coli;Escherichia coli LK111lambda) (UniProt P0AGE0+P28905+P28632); experiment: analytical ultracentrifugation (sedimentation velocity); settings: Low salt: 5 mM NaCl, 5 mM KPi pH 7.4, 0.87 M glycerol, 0.5 mM DTT; high salt: 0.3 M NaCl, 20 mM KPi pH 7.4, 0.5 mM DTT; AUC at 20 C; EMSA incubated 10 min at …
[4] = target: T1, Pae chi-psi complex (DNA polymerase III) (Pseudomonas aeruginosa PAO1) (UniProt O68823); experiment: as above; settings: Low salt: 5 mM NaCl, 5 mM KPi pH 7.4, 0.87 M glycerol, 0.5 mM DTT; high salt: 0.3 M NaCl, 20 mM KPi pH 7.4, 0.5 mM DTT; AUC at 20 C; EMSA incubated 10 min at …
T1 sequence: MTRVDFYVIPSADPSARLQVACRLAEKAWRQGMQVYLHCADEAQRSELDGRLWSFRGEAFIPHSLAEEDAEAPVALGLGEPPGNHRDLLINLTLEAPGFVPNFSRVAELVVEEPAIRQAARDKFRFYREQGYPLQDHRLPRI

[5] = target: PaeSSB;Pae chi-psi complex (DNA polymerase III) (Pseudomonas aeruginosa;Pseudomonas aeruginosa PAO1) (UniProt P40947+O68823); experiment: as above; settings: Low salt: 5 mM NaCl, 5 mM KPi pH 7.4, 0.87 M glycerol, 0.5 mM DTT; high salt: 0.3 M NaCl, 20 mM KPi pH 7.4, 0.5 mM DTT; AUC at 20 C; EMSA incubated 10 min at …
Sequence of PaeSSB;Pae chi-psi complex (DNA polymerase III) (Pseudomonas aeruginosa;Pseudomonas aeruginosa PAO1) (P40947 2-165, one chain of several): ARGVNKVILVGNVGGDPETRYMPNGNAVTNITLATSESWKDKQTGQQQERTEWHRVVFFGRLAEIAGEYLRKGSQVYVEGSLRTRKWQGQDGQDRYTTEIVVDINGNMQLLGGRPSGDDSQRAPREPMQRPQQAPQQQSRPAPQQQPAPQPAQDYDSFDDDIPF

Sequence of P. aeruginosa single-stranded DNA-binding protein (P. aeruginosa) (P40947 whole entry): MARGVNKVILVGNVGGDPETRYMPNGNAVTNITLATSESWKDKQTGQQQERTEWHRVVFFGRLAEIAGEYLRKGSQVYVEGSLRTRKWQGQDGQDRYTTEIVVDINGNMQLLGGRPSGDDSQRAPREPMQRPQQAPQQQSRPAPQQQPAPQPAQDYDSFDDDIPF
Sequence of EcoSSB;Eco chi-psi complex (Escherichia coli;Escherichia coli LK111lambda) (P0AGE0 2-178, chain 1 of 3): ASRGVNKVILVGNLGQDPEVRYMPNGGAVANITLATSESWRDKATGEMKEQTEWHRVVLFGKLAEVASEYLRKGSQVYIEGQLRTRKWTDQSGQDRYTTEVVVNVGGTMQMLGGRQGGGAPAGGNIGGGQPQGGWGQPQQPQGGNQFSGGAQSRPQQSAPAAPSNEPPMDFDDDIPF
Sequence of EcoSSB;Eco chi-psi complex (Escherichia coli;Escherichia coli LK111lambda) (P28905 whole entry, chain 2 of 3): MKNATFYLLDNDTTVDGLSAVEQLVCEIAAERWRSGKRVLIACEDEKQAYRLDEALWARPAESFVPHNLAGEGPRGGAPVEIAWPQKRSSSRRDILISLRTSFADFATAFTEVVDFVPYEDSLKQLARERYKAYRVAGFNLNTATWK
Sequence of EcoSSB;Eco chi-psi complex (Escherichia coli;Escherichia coli LK111lambda) (P28632 whole entry, chain 3 of 3): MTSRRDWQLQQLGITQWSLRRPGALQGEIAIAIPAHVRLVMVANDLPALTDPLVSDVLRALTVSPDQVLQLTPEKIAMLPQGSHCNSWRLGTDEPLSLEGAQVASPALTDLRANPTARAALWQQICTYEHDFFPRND

Row | Substance | Ka [1] [M⁻¹] | stoichiometry N (χψ per SSB tetramer) [1] | Ka [2] [M⁻¹] | stoichiometry N (χψ per SSB tetramer) [2] | Ka [3] [M⁻¹] | Ka [4] [M⁻¹] | Ka [5] [M⁻¹]
1 | P. aeruginosa χψ complex (from UniProt O68823 1-142) | 130000 | 2.2 | > 5e+07 | 2.2 |  |  | 
2 | TTTTTTTTTTTTTTTTTTTTTTTTTTTTTTTTTTTTTTTTTTTTTTTTTTTTTTTTTTTTTTTTTTTTTTTTTTTTTTTTTTTTTTTTTTTTTTTTTTTTTTTTTTTTTTTTTTTTTTTTTTTTTTTTTTTTTTTTTTTTTTTTTTTTTTTTTTTTTTTTTTTTTTTTTTTTTTTTTTTTTTTTTTTTTTTTTTTTTTTTTTTTTTTTTTTTTTTTTTTTTTTTTTTTTTTTTTTTTTTTTTTTTTTTTTTTTTTTTTTTTTTTTTTTTTTTTTTTTTTTTTTTTTTTTTTTTTTTTTTT [poly(dT)] |  |  |  |  | 6e+06 | 500000 | > 5e+07
